Experiments:
[1] = target: soluble human streptavidin-tagged RAGE (human) (UniProt Q15109); experiment: BIACORE capture, hRAGE-SA over captured antibody, 1:1 Langmuir global fit, FC3
[2] = target: murine RAGE-strep tag fusion protein (mouse) (UniProt Q62151); experiment: BIACORE capture, SA-Mu RAGE over captured antibody, 1:1 Langmuir global fit, FC2
[3] = target: human RAGE-Fc fusion protein (human) (UniProt Q15109); experiment: ligand competition ELISA, panel Blocks hRAGE-Fc interaction with HMGB1; blocked ligand HMGB1
[4] = target: human RAGE-Fc fusion protein (human) (UniProt Q15109); experiment: antibody competition ELISA on hRAGE-Fc; competitor biotinylated XT-M4
[5] = target: murine RAGE-strep tag fusion protein (mouse) (UniProt Q62151); experiment: BIACORE capture, SA-Mu RAGE over captured antibody, 1:1 Langmuir global fit, FC3
[6] = target: rhVCAM-1 (human) (UniProt P19320); experiment: direct binding ELISA, receptor coated at 1 µg/ml, antibody at 20 µg/ml
Sequence of rhVCAM-1 (human) (P19320 25-698 limits assumed): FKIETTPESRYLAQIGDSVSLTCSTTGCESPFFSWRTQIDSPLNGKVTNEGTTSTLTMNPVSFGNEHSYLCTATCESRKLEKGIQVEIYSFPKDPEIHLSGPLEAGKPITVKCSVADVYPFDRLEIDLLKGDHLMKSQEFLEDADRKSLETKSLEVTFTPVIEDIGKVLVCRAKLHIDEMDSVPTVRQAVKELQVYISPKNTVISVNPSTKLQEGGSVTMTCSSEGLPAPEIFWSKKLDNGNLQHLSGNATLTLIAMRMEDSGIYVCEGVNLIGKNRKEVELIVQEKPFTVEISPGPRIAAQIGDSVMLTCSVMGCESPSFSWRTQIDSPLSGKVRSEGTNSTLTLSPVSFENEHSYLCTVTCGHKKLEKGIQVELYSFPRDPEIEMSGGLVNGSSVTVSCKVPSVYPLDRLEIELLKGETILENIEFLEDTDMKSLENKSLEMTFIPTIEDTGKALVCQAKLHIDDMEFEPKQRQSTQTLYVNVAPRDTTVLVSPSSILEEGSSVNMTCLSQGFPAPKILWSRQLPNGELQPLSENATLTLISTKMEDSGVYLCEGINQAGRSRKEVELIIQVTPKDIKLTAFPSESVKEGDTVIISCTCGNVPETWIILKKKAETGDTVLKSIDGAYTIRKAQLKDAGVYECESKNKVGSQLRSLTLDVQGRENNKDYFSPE

[7] = target: rhB7-H1-Fc (human) (UniProt Q9NZQ7); experiment: as above
Sequence of rhB7-H1-Fc (human) (Q9NZQ7 19-239): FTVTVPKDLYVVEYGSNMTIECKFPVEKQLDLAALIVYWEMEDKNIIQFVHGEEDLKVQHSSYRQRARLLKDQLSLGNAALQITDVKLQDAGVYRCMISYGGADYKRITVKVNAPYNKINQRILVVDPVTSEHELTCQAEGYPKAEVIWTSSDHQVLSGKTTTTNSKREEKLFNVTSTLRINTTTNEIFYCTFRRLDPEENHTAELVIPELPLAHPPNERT

[8] = target: human RAGE-Fc fusion protein (human) (UniProt Q15109); experiment: as above
[9] = target: hLox1-Fc (human) (UniProt P78380); experiment: as above
[10] = target: rhNCAM-1 (human) (UniProt P13591); experiment: as above
Sequence of rhNCAM-1 (human) (P13591 other isoform, or with tags, fused parts or gaps limits assumed): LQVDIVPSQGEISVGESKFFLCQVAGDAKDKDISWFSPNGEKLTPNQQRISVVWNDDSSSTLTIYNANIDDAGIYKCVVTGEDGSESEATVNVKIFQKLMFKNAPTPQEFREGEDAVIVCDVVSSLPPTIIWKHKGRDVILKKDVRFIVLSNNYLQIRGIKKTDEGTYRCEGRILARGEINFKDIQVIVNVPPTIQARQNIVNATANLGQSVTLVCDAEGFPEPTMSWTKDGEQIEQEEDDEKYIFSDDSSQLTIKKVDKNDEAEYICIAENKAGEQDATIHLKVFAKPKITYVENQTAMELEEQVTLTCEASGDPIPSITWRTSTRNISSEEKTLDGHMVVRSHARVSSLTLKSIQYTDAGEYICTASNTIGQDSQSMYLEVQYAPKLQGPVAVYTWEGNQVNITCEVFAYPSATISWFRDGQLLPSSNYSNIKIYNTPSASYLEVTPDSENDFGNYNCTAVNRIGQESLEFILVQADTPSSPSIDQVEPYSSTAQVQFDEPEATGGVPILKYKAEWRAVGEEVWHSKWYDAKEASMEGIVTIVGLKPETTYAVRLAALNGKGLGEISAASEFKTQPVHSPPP

[11] = target: rhTLR4 (C-terminal His tag) (human) (UniProt O00206); experiment: as above
Sequence of rhTLR4 (C-terminal His tag) (human) (O00206 24-631 limits assumed): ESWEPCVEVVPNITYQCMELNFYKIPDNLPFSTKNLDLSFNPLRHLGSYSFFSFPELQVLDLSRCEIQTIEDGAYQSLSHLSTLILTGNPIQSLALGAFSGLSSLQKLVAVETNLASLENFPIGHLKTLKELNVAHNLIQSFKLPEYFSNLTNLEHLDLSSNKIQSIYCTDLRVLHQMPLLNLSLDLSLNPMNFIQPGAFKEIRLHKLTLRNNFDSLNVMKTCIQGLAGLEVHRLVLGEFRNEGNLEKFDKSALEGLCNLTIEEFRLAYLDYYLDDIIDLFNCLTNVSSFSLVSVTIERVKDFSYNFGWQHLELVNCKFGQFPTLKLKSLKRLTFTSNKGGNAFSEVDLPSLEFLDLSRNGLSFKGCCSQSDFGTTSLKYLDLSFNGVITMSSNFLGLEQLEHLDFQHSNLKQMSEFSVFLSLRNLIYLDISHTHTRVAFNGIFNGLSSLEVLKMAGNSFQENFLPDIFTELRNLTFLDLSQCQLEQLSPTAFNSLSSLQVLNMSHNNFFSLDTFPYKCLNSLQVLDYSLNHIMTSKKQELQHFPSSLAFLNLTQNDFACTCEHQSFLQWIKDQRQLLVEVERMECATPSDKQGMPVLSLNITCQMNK

[12] = target: mLox1-Fc (mouse) (UniProt Q9EQ09); experiment: as above
Sequence of mLox1-Fc (mouse) (Q9EQ09 60-363): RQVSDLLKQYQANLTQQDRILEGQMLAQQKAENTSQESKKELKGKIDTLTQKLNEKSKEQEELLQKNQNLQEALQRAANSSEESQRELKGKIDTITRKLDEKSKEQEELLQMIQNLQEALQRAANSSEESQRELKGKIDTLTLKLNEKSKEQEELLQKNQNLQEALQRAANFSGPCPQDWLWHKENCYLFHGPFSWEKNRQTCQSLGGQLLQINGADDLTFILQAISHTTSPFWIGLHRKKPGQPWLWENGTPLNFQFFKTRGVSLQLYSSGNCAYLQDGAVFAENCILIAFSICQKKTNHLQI

[13] = target: rhICAM-1-Fc (human) (UniProt P05362); experiment: as above
Sequence of rhICAM-1-Fc (human) (P05362 28-480): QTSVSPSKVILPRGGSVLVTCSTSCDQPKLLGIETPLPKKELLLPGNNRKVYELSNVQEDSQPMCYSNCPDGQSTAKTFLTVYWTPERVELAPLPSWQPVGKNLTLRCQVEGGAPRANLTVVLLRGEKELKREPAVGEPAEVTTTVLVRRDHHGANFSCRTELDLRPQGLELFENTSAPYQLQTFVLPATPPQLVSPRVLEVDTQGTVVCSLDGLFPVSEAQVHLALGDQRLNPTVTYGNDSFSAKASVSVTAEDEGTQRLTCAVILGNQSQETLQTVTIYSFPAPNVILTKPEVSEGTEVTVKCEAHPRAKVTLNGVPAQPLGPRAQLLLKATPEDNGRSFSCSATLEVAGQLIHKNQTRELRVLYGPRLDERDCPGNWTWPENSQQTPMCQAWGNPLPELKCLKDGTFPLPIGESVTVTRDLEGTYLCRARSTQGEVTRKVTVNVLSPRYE

[14] = target: murine RAGE-strep tag fusion protein (mouse) (UniProt Q62151); experiment: BIACORE capture, SA-Mu RAGE over captured antibody, 1:1 Langmuir global fit, FC4
[15] = target: human RAGE, full length (human) (UniProt Q15109); experiment: cell-based ELISA, 293 cells transfected with human RAGE
[16] = target: soluble human streptavidin-tagged RAGE (human) (UniProt Q15109); experiment: BIACORE capture, hRAGE-SA over captured antibody, 1:1 Langmuir global fit, row Average
[17] = target: soluble human streptavidin-tagged RAGE (human) (UniProt Q15109); experiment: BIACORE capture assay, antibody on CM5 chip, hRAGE-SA 0-100 nM in solution
[18] = target: human RAGE-Fc fusion protein (human) (UniProt Q15109); experiment: ligand competition ELISA, panel Blocks hRAGE-Fc interaction with S100-A; blocked ligand S100-A
[19] = target: murine RAGE-strep tag fusion protein (mouse) (UniProt Q62151); experiment: BIACORE capture, SA-Mu RAGE over captured antibody, 1:1 Langmuir global fit, row Average
[20] = target: cynomolgus monkey RAGE (cynomolgus monkey (Macaca fascicularis)); experiment: cell-based ELISA, 293 cells transfected with cynomolgus monkey RAGE
[21] = target: human RAGE-Fc fusion protein (human) (UniProt Q15109); experiment: ligand competition ELISA, panel Blocks hRAGE-Fc interaction with S100-B; blocked ligand S100-B
[22] = target: human RAGE-Fc fusion protein (human) (UniProt Q15109); experiment: ligand competition ELISA, panel Blocks hRAGE-Fc interaction with A-beta; blocked ligand amyloid beta 1-42 peptide

Sequence of murine RAGE-strep tag fusion protein (mouse) (Q62151 other isoform, or with tags, fused parts or gaps): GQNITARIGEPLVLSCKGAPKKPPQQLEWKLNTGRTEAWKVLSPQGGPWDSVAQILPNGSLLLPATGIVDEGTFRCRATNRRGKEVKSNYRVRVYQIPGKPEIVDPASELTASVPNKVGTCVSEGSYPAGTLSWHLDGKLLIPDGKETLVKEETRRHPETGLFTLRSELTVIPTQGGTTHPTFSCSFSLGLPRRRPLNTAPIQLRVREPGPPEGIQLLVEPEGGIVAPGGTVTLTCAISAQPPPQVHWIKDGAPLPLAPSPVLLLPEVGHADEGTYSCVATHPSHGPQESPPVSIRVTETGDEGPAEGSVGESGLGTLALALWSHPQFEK

Kd [1]: 7.33 nM | Kd [2]: 1.9 nM | IC50 (read off the curve) [3]: 0.1 µg/mL | IC50 (read off the curve) [4]: 0.4 µg/mL | Kd [5]: 1.9 nM | OD450 [6]: 0.004 | OD450 [7]: 0.003 | OD450 [8]: 3.8 | OD450 [9]: 0.017 | OD450 [10]: 0.006 | OD450 [11]: 0 | OD450 [12]: 0.01 | OD450 [13]: 0.004 | Kd [14]: 2 nM | EC50 [15]: 0.8 nM | Kd [16]: 7.91 nM | Ka [17]: 1.77e+08 M⁻¹ | Kd [17]: 5.66 nM | IC50 (read off the curve) [18]: 0.09 µg/mL | Kd [19]: 1.9 nM | EC50 [20]: 1.66 nM | IC50 (read off the curve) [21]: 0.08 µg/mL | IC50 (read off the curve) [22]: 0.2 µg/mL
Substance: chimeric antibody XT-M4 (from UniProt P01857 1-330)

— patent US20070286858A1
